The results in this text go back to article PMC8213127.

For assay [1], the target named is FlhA from the lateral flagella of Vibrio parahaemolyticus (Vibrio parahaemolyticus). Kind of assay: cryo-EM structure; purified full-length protein at 0.8-1 mg/ml in TBS with 0.01% LMNG; single particle analysis in Relion; C9 symmetry imposed for Vp-FlhA, D9 for Ye-SctV; only the cytoplasmic domain resolved.
Assay [2] addresses SctV from Yersinia enterocolitica (Yersinia enterocolitica). Described as above.

“FlhA from the lateral flagella of Vibrio parahaemolyticus (natural protein)”: in assay [1], the stoichiometry N (in general, the number of molecules, sites or subunits per partner or assembly) amounted to 9.

“SctV from Yersinia enterocolitica (natural protein)” came in with a stoichiometry N in assay [2] of 9.
